Data taken from patent US20150266963A1 (ARGEN X B V, published 2015).

Legend:
[1] = biological target: T1, human CD70 expressed on the surface of cells (human, UniProt P32970 1-193); assay: FACS MFI at 37 C, Mino cells; reference SGN70
T1 construct: whole, on cells; also called cell surface expressed CD70; CD70 on cells
T1 sequence (looked up): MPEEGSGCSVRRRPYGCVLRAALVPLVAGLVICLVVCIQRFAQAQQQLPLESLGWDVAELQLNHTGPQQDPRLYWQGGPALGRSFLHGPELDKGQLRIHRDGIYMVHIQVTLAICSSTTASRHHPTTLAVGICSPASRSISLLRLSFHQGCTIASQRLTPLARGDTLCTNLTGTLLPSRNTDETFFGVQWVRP
Experimental: (§1) Several cancer cell lines were tested by FACS analysis for binding of ARGX-110 and SGN70 (described in US2010/0129362) at saturating mAb concentrations (at least 2 μg/ml). This was either done at 4° C. (1 hour incubation of cells with mAbs) or at 37° C. (15 minutes incubation of cells with mAbs). Binding was detected using anti-hIgG1-Fc-FITC (AF006, Binding Site) or anti-hIgG1-Fc-PE antibody (eBioscience, 12-4998). Fluorescence was measured using a flow cytometer.

[2] = biological target: T1, human CD70 expressed on the surface of …; assay: FACS MFI at 37 C, PANC-1 cells; reference SGN70
Experimental: as §1

[3] = biological target: T2, recombinant human CD70 (Flag-TNC-CD70) (human, UniProt P32970 39-193); assay: blocking ELISA; competitor CD27-Fc; references SGN70 and MDX1411
T2 construct: extracellular domain; Captured by anti-Flag mAb in ELISA; as 'recombinant human CD70' immobilised on Biacore CM5 chips; TNC is for trimerisation; also called recombinant CD70; human recombinant CD70; not shown: Flag tag and TNC trimerisation domain
T2 sequence (looked up): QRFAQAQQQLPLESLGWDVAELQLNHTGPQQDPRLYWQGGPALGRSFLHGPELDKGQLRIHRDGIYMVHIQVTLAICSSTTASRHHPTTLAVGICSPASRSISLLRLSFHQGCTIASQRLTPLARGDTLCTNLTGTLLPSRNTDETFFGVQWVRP
Experimental: In this assay, a microtiter plate (Nunc Maxisorb) was first coated with 100 μl anti-FLAG M2 monoclonal antibody (Sigma Aldrich, F3165) at 1250-fold dilution in PBS (to achieve a final concentration of approximately 3.5 μg/ml) overnight at 4° C. The plate was washed once with PBS-Tween and incubated at RT for 2 hours with 300 μl PBS-1% casein. The plate was washed a further three times with PBS-Tween. 100 μl of 5 ng/ml (80 pM) Flag-TNC-CD70 (The Journal of Immunology, 2009, 183: 1851-1861) diluted in PBS-0.1% casein was added to the plate and incubated at RT for 1 hour while shaking. The plate was washed five times with PBS-Tween. The CD70 mAb to be tested was added to the plate; various concentrations were achieved by diluting the stock antibody solution in PBS-0.1% casein. Immediately thereafter, 50 μl of 1 μg/ml (final concentration 6.5 nM) recombinant human CD27 Fc chimera (R&D systems 382-CD, MW=46.5 kDa) was added, and incubated at RT for 1 hour while shaking. The plate was washed five times with PBS Tween. 100 μl of biotinylated anti-CD27 (eBioscience 13-0271), diluted 500-fold in PBS-0.1% casein, was added, and the plate incubated at RT for a further hour, while shaking. The plate was washed five times with PBS Tween. […] 100 μl TMB was added to the plate and the OD at 620 nm was measured. […]

[4] = biological target: T1, human CD70 expressed on the surface of …; assay: FACS MFI at 37 C, JVM-2 cells; reference SGN70
Experimental: as §1

[5] = biological target: T3, rhesus recombinant CD70 (FLAG-TNC-rhesus CD70) (rhesus); assay: blocking ELISA; rhesus Flag-TNC-CD70; competitor CD27-Fc
T3 construct: also called rhesus Flag-TNC-CD70

Signal in FACS of ARGX-110/signal in FACS of SGN70 [1]: 1 ratio
Signal in FACS of ARGX-110/signal in FACS of SGN70 [2]: 2.9 ratio
fold more potent in blocking than the two benchmark mAbs [3]: ~100 fold
Signal in FACS of ARGX-110/signal in FACS of SGN70 [4]: 2.4 ratio
IC50 [5]: 0.075 µg/mL
B1: ARGX-110 (non-fucosylated 41D12 human IgG1) (antibody, V domains shown)
VH: EVQLVESGGGLVQPGGSLRLSCAASGFTFSVYYMNWVRQAPGKGLEWVSDINNEGGTTYYADSVKGRFTISRDNSKNSLYLQMNSLRAEDTAVYYCARDAGYSNHVPIFDSWGQGTLVTVSS
VL: QAVVTQEPSLTVSPGGTVTLTCGLKSGSVTSDNFPTWYQQTPGQAPRLLIYNTNTRHSGVPDRFSGSILGNKAALTITGAQADDEAEYFCALFISNPSVEFGGGTQLTVLG
notes: also called 41D12 (ARGX-110)
